“And” between values parts separate entries of the source, which are not always exact repeats. Equal entries are not always repeated. Where two headings read alike, the source gives them in different places.
B1: BDNF: brain-derived neurotrophic factor, neurotrophin, ligand of TrkB (protein, UniProt P23560 19-247, looked up)
Neurotrophic factor BDNF …: APMKEANIRGQGGLAYPGVRTHGTLESVNGPKAGSRGLTSLADTFEHVIEELLDEDQKVRPNEENNKDADLYTSRVMLSSQVPLEPPLLFLLEEYKNYLDAANMSMRVRRHSDPARRGELSVCDSISEWVTAADKKTAVDMSGGTVTVLEKVPVSKGQLKQYFYETKCNPMGYTKEGCRGIDKRHWNSQCRTTQSYVRALTMDSKKRIGWRFIRIDTSCVCTLTIKRGR
B2: NT-4: neurotrophin 4, ligand of TrkB (protein, UniProt P34130 81-210, looked up)
Neurotrophin-4: GVSETAPASRRGELAVCDAVSGWVTDRRTAVDLRGREVEVLGEVPAAGGSPLRQYFFETRCKADNAEEGGPGAGGGGCRGVDRRHWVSECKAKQSYVRALTADAQGRVGWRWIRIDTACVCTLLSRTGRA
B3: NGF: nerve growth factor, neurotrophin, preferred ligand of TrkA (protein, UniProt P01139 122-241, looked up)
Beta-nerve growth factor: SSTHPVFHMGEFSVCDSVSVWVGDKTTATDIKGKEVTVLAEVNINNSVFRQYFFETKCRASNPVESGCRGIDSKHWNSYCTTTHTFVKALTTDEKQAAWRFIRIDTACVCVLSRKATRRG

Experiments:
[1] = system: Thapsigargin-induced NFAT reporter activity, TrkB-NFAT-bla CHO-K1 cells; experiment: Inhibition of Thapsigargin-induced NFAT reporter activity in TrkB-NFAT-bla CHO-K1 cells; format: cell-based; details: for IC50: TrkB cells, Thapsigargin 8 nM, 5 h, * values may not be accurate, curves did not reach saturation, read-out: IC50, TrkB, Thaps
Experimental: (§1) Cells in a sub-confluency state (or cryopreserved cells) were resuspended in Assay Medium (DMEM with GlutaMAX™ (Invitrogen, catalog number 10569) supplemented with 0.1% dialyzed FBS, 0.1 mM NEAA, 25 mM HEPES, 100 U/mL Penicillin and 100 µg/mL Streptomycin) and plated in a 384-well assay plate (Corning, Lowell, MA, catalog number 3712) at 10,000 cells (32 μL) per well. 32 μL of Assay Medium without cells were plated in Cell-free Control wells on the same plate. 4 µL 1% DMSO was added to each well to reach final DMSO concentration of 0.1% to mimic the screening situation where compounds dissolved in DMSO are added to test wells. Cells were then stimulated with 4 µL/well 10 x ligands (NGF, BDNF, NT-4 (Invitrogen, catalog number PHC7024), NT-3 or Thapsigargin (Sigma, St. Louis, MO)) over the indicated concentration range (1 pM ~ 50000 pM) for 5 hours before adding 8 µL/well 6X LiveBLAzer™-FRET B/G Substrate mixture (Invitrogen, catalog number K1096) for 2 hours. Fluorescence intensity at excitation 406 nm and emission 460 nm and 530 nm were obtained using Tecan Safire^2 fluorescence plate reader (Tecan, Durham, NC) (Table 1). After subtracting the average fluorescence intensity from the Cell-free Control wells, the 460nm/530nm emission ratio was calculated. Response Ratio is a measurement of the assay window and is calculated as the 460nm/530nm Emission Ratio of the stimulated wells divided by the 460nm/530nm Emission Ratio of the unstimulated wells. Response Ratios were plotted against test ligand concentrations in log scale and then analyzed using Prism software (GraphPad Software, Inc. San Diego, CA). Sigmoidal dose-response equation with varying slope was used to fit the data and generate EC50 values. Z’-factor values were calculated as: Z’-factor = 1 - [(3 x stdevunstim + 3 x stdevmaxstim) / (avgmaxstim – avgunstim)].
(§2) Cells were then stimulated with 4 µL of neurotrophins at 10 x EC80 concentrations (EC80 concentrations are: NGF, 0.77 nM; BDNF, 1 nM; NT-3, 0.72 nM; Thapsigargin, 8 nM) for 5 hours before beta-lactamase assay was performed as described above.

[2] = system: Thapsigargin-induced NFAT reporter activity, TrkA-NFAT-bla CHO-K1 cells; experiment: Inhibition of Thapsigargin-induced NFAT reporter activity in TrkA-NFAT-bla CHO-K1 cells; format: cell-based; details: for IC50: TrkA cells, Thapsigargin 8 nM, 5 h, * values may not be accurate, curves did not reach saturation, read-out: IC50, TrkA, Thaps
Experimental: as §1, §2

[3] = biological target: T1, human TrkB (Homo sapiens, UniProt Q16620); experiment: Inhibition of BDNF-induced beta-lactamase activity in TrkB-NFAT-bla CHO-K1 cells; format: cell-based
T1 construct: Full length human TRKA, TRKB and TRKC cDNAs were synthesized by Blue Heron Biotechnology; expressed in transfected cells

[4] = biological target: T2, human TrkA (Homo sapiens, UniProt P04629); experiment: Inhibition of NGF-induced beta-lactamase activity in TrkA-NFAT-bla CHO-K1 cells; format: cell-based
T2 construct: Full length human TRKA, TRKB and TRKC cDNAs were synthesized by Blue Heron Biotechnology; expressed in transfected cells

[5] = system: Thapsigargin-induced NFAT reporter activity, TrkC-NFAT-bla CHO-K1 cells; experiment: Inhibition of Thapsigargin-induced NFAT reporter activity in TrkC-NFAT-bla CHO-K1 cells; format: cell-based; details: for IC50: TrkC cells, Thapsigargin 8 nM, 5 h, * values may not be accurate, curves did not reach saturation, read-out: IC50, TrkC, Thaps
Experimental: as §1, §2

[6] = system: TrkA; design: method as in PMID 7683492; details: cited from earlier work
[7] = biological target: T3, human TrkC (Homo sapiens, UniProt Q16288); experiment: Inhibition of NT-3-induced beta-lactamase activity in TrkC-NFAT-bla CHO-K1 cells; format: cell-based
T3 construct: Full length human TRKA, TRKB and TRKC cDNAs were synthesized by Blue Heron Biotechnology; expressed in transfected cells
Experimental: as §1

[8] = system: thapsigargin-induced NFAT-bla reporter activity; experiment: Effect of RNAi oligos on thapsigargin-induced NFAT-bla reporter activity in TrkA-, TrkB- and TrkC-NFAT-bla CHO-K1 cells; format: cell-based; details: all three cell lines, 50 nM RNAi oligo, Thapsigargin 30 nM 5 h
Experimental: Cells were plated in 96-well assay plates (Corning, catalog number 3603) at 6,000 cells/well in 100 µL growth medium (DMEM containing 10% dialyzed FBS, 0.1 mM NEAA and 25 mM HEPES), and incubated in 37°C, 5% CO2 incubator overnight. Next morning, Stealth™ RNAi (Invitrogen, catalog number 10620318) and Lipofectamine^TM RNAiMAX (Invitrogen, catalog number 13778) complexes were prepared according to the manufacturer’s protocol and added to the wells (50 nM RNAi oligos and 1µL RNAiMAX/well). RNAi oligo targeting for beta-lactamase was used as the positive control and a random-sequenced oligo with 48% GC content (Med GC) as the negative control. A set of 2 oligos for each Trk was used:
Cells were incubated with RNAi oligos at 37°C for 32 hours, followed by a medium change. Cells were incubated in Assay Medium at 37 °C for 16 hours and then stimulated with respective ligands (NGF, 0.77 nM; BDNF, 1 nM; NT-3, 0.72 nM and Thapsigargin, 30 nM) for 5 hours before beta-lactamase assay was performed as described above.

[9] = system: NFAT-bla reporter, Trk-NFAT-bla CHO-K1 cells; experiment: Thapsigargin stimulation of Trk-NFAT-bla CHO-K1 cell lines; format: cell-based; details: used for stimulation in inhibitor assay
Experimental: as §1, with “Cells were then stimulated with 4 µL/well 10 x ligands (NGF, BDNF, NT-4 (Invitrogen, catalog number PHC7024), NT-3 or Thapsigargin (Sigma, St. Louis, MO)) over the indicated concentration range (1 pM ~ 50000 pM) for 5 hours before adding 8 µL/well 6X LiveBLAzer™-FRET B/G Substrate mixture (Invitrogen, catalog number K1096) for 2 hours.” left out, “Sigmoidal dose-response equation with varying slope was used to fit the data and generate EC50 values. Z’-factor values were calculated as: Z’-factor = 1 - [(3 x stdevunstim + 3 x stdevmaxstim) / (avgmaxstim – avgunstim)].” left out

[10] = biological target: T2, human TrkA; experiment: Neurotrophin dose response, beta-lactamase reporter assay in TrkA-NFAT-bla CHO-K1 cells; format: cell-based; details: for maximum response ratio / response over baseline, TrkA-NFAT-bla CHO-K1: 460nm/530nm ratio stimulated vs unstimulated; for EC50: 5 h stimulation, 0.1% DMSO, * values may not be accurate, curves did not reach saturation; for response of TrkA-NFAT-bla CHO-K1 cells (in words): up to 50 nM
From the text: (§3) NFAT beta-lactamase reporter line NFAT-bla CHO-K1 cells (Invitrogen, Carlsbad, CA, catalog number K1078) were transfected using Lipofectamine™ LTX transfection reagent (Invitrogen, Carlsbad, CA) with pcDNA6-TRKA, pcDNA6-TRKB and pcDNA6-TRKC and selected for blasticidin-resistance. Blasticidin-resistant TrkA transfected cells were stimulated with NGF (Invitrogen, catalog number 13257-019), TrkB transfected cells with BDNF (Invitrogen, catalog number PHC7074) and TrkC transfected cells with NT-3 (Invitrogen, catalog number PHC7034) for 5 hours before neurotrophin stimulated beta-lactamase expressing cells were collected by FACS as single cells onto 96-well plates. The survived clones that responded to the respective ligand were selected and expanded. The clone with the best response to each ligand was further tested in a 384-well format for the dose response of neurotrophins and inhibitors and in a 96-well format for RNAi knock-down.
as §1

[11] = biological target: T1, human TrkB; experiment: Neurotrophin dose response, beta-lactamase reporter assay in TrkB-NFAT-bla CHO-K1 cells; format: cell-based; details: for maximum response ratio, TrkB-NFAT-bla CHO-K1: 460nm/530nm ratio stimulated vs unstimulated; for EC50: 5 h stimulation, 0.1% DMSO
From the text: as §3, §1

[12] = biological target: T3, human TrkC; experiment: Neurotrophin dose response, beta-lactamase reporter assay in TrkC-NFAT-bla CHO-K1 cells; format: cell-based; details: for EC50: 5 h stimulation, 0.1% DMSO, * values may not be accurate, curves did not reach saturation; for response of TrkC-NFAT-bla CHO-K1 cells (in words): up to 50 nM
From the text: as §3, §1

[13] = 30 min pretreatment, BDNF at EC80 1 nM, 5 h, read-out: IC50, TrkB, BDNF
[14] = 30 min pretreatment, NT-3 at EC80 0.72 nM, 5 h, read-out: IC50, TrkC, NT-3
[15] = used for stimulation in inhibitor assay
[16] = at the highest concentration tested

T1 sequence (Q16620 32-838 isoform Q16620-4 limits assumed): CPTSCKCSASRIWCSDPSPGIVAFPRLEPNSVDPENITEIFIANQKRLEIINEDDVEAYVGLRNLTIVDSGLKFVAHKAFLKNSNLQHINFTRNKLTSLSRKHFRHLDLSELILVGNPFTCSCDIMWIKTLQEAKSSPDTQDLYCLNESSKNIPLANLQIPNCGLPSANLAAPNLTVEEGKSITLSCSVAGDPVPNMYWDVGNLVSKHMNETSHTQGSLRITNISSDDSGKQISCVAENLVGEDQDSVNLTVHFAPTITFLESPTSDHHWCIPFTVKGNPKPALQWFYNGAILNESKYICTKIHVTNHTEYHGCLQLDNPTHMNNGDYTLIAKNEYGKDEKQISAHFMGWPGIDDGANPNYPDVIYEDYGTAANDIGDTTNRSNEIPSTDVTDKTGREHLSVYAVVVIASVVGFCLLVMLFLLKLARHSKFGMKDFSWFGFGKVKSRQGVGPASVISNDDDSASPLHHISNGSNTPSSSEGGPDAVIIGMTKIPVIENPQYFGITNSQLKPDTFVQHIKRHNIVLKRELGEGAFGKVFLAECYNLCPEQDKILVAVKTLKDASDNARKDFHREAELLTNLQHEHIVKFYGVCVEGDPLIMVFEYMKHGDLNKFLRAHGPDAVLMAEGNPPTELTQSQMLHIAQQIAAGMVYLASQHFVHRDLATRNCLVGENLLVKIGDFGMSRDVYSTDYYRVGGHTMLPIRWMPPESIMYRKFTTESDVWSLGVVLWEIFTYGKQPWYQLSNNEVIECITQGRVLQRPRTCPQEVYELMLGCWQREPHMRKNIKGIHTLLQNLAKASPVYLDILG
T3 sequence (Q16288 32-825 isoform Q16288-3 limits assumed): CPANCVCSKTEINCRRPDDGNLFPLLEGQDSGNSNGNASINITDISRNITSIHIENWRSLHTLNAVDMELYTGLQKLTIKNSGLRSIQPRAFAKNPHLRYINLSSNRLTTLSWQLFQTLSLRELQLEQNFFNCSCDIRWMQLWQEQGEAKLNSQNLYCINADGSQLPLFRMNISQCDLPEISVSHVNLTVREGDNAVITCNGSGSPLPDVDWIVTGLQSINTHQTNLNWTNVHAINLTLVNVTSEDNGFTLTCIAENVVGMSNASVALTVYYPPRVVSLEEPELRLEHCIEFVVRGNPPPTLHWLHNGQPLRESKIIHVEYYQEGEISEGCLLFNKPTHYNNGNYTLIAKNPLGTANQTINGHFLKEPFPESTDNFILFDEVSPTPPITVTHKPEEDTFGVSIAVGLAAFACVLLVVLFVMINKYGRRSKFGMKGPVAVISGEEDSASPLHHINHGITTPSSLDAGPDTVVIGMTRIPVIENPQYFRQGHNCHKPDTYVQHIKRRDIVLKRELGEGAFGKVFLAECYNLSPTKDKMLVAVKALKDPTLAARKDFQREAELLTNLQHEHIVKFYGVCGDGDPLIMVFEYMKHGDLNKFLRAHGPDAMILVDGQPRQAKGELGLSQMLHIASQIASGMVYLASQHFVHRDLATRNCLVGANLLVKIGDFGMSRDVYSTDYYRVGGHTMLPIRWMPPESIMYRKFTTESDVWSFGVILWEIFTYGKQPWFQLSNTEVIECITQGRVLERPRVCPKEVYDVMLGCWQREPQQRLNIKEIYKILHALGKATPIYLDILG
T2 sequence (P04629 33-796): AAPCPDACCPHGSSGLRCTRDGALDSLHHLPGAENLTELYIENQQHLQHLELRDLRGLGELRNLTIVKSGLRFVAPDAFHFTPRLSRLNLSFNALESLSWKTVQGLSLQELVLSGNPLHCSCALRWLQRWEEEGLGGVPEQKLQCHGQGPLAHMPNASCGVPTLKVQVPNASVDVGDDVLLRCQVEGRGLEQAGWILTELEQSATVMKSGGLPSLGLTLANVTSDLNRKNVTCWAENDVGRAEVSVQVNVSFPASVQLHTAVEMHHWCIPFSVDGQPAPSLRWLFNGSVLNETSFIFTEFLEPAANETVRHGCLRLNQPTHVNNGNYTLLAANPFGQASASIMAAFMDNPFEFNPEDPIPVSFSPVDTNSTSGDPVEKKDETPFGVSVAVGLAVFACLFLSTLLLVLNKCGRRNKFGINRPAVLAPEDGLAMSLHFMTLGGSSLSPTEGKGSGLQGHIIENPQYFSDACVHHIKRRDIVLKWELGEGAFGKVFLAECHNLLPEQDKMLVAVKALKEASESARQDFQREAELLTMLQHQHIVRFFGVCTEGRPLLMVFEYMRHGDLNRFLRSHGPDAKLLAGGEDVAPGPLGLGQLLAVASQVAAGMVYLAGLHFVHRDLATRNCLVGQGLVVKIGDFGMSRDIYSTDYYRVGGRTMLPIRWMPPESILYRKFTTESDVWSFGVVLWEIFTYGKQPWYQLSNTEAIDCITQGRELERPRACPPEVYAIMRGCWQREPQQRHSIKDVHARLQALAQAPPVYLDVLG

Row | Molecule | IC50 [1] | IC50 [2] | IC50 [5] | EC50 [10] | maximum response ratio, TrkB-NFAT-bla CHO-K1 [11] | EC50 [11] | EC50 [12] | response of TrkC-NFAT-bla CHO-K1 cells (in words) [12] | further results
1 | CC(C)(C)c1cc(/C=C(\C#N)C(N)=S)cc(C(C)(C)C)c1O [AG879] | 51 nM | 112 nM | 231 nM | – | – | – | – | – | IC50 [3, 13]: 1010 nM; IC50 ([3]; BDNF-induced, read-out: IC50, TrkB-mediated NFAT-bla reporter activity): ~1000 nM; IC50 ([4]; 30 min pretreatment, NGF at EC80 0.77 nM, 5 h, read-out: IC50, TrkA, NGF): 1330 nM; IC50 ([4]; NGF-induced, read-out: IC50, TrkA-mediated NFAT-bla reporter activity): ~1000 nM; concentrations inhibiting NGF induced TrkA autophosphorylation and PLC-γ phosphorylation [6]: micro-molar concentrations; IC50 [7, 14]: 1310 nM; IC50 ([7]; NT-3-induced, read-out: IC50, TrkC-mediated NFAT-bla reporter activity): ~1000 nM
2 | TRKB2: Stealth RNAi oligo for TrkB, ACACCACGAACAGAAGUAAUGAAAU (Stealth RNAi oligo, modification pattern not given here) | – | – | – | – | – | – | – | – | inhibitory effect on thapsigargin-induced NFAT-bla reporter activity [8]: about 50%
3 | TRKC2: Stealth RNAi oligo for TrkC, CCAGACCAAUCUGAACUGGACCAAU (Stealth RNAi oligo, modification pattern not given here) | – | – | – | – | – | – | – | – | effect on thapsigargin-induced NFAT-bla reporter activity (in words) [8]: did not inhibit
4 | C/C=C(/C)C(=O)O[C@H]1C(C)=C2[C@H]([C@@H]1OC(=O)CCCCCCC)[C@@](C)(OC(C)=O)C[C@H](OC(=O)CCC)[C@@]1(O)[C@H]2OC(=O)[C@@]1(C)O [Thapsigargin] | – | – | – | – | – | – | – | – | EC80 concentration, Thapsigargin [9]: 8 nM
5 | NT-3: neurotrophin 3, preferred ligand of TrkC | – | – | – | ~16 nM and 16 nM | 13 | 2.5 nM | 0.093 nM and 0.09 nM | – | maximum response ratio / response over baseline, TrkA-NFAT-bla CHO-K1 [10]: 3 fold; maximum response ratio, TrkC-NFAT-bla CHO-K1 ([12]; […]nm/530nm ratio stimulated vs unstimulated): 8.5; EC80 concentration, TrkC cells [12, 15]: 0.72 nM
6 | COC(=O)[C@@]1(O)C[C@H]2O[C@]1(C)n1c3ccccc3c3c4c(c5c6ccccc6n2c5c31)C(=O)NC4 [K252a] | > 1000 nM | 570 nM | 500 nM | – | – | – | – | – | effect on Thapsigargin induced reporter activity, TrkB cells (in words) [1, 16]: partial inhibitory effect; effect on Thapsigargin induced reporter activity, TrkA cells (in words) [2, 16]: partial inhibitory effect; IC50 in words, BDNF-induced beta-lactamase activity in TrkB cells [3]: low nano-molar; IC50 [3, 13]: 11 nM; effect on Thapsigargin induced reporter activity, TrkC cells (in words) [5, 16]: partial inhibitory effect; IC50 in words, NT-3-induced beta-lactamase activity in TrkC cells [7]: low nano-molar; IC50 [7, 14]: 30 nM
7 | Cn1cc(/C=C2\C(=O)Nc3cccnc32)c2ccccc21 [GW441756] | 8200 nM | 2830 nM | 8970 nM | – | – | – | – | – | –
8 | B1 | – | – | – | > 50 nM | 14 | 0.39 nM | 28 nM | only at the highest concentration (50 nM) tested | response of TrkA-NFAT-bla CHO-K1 cells (in words) [10]: minimal effect; EC80 concentration, TrkB cells [11, 15]: 1 nM
9 | B2 | – | – | – | > 50 nM | 13 | 3.5 nM | > 50 nM | did not show any response | response of TrkA-NFAT-bla CHO-K1 cells (in words) [10]: minimal effect
10 | B3 | – | – | – | 0.044 nM | – | > 50 nM | > 50 nM | did not show any response | maximum response ratio / response over baseline, TrkA-NFAT-bla CHO-K1 [10]: 5.5 fold; EC50 ([10]; listed as NGF 2.5s): 0.04 nM; EC80 concentration, TrkA cells [10, 15]: 0.77 nM; response of TrkB-NFAT-bla CHO-K1 cells (in words) ([11]; up to 50 nM): did not respond at all

Source: PMC2774616, “Cellular Assays for High-Throughput Screening for Modulators of Trk Receptor Tyrosine Kinases” (Current Chemical Genomics, 2008)
